Assay results: article PMC7954978

Target: GltPh-XL2 (cysteine-less GltPh with L152C and G351C) (UniProt O59010)
Test: cryo-EM structure

stoichiometry N: 3
Substance: GltPh-XL2 (cysteine-less GltPh with L152C and G351C) (from UniProt O59010 1-417) (natural protein)
